Reference: patent publication US20070207086A1 (published 2007)
Positions of bridges follow the written chain, without caps; N, C: chain ends. No end group written: not given here.

B1: AHNP analogue 9, FCDGFYACYMDV-OH (linear, not cyclized) (peptide)
peptide: FCDGFYACYMDV-OH
modifications: cysteine pairing not given here
notes: also called peptide 9; linear analogue 9
B2: AHNP analogue 2, FCDGFYACYMDV-OH (cyclic) (peptide)
peptide: FCDGFYACYMDV-OH
modifications: disulfide 2-8 (inferred)
notes: also called peptide 2
B3: AHNP analogue 8, FCGDGFYACYMDV-OH (peptide)
peptide: FCGDGFYACYMDV-OH
modifications: disulfide 2-9 (inferred)
notes: First AHNP analogue designed; has one more turn Gly than peptide 2; also called peptide 8
B4: AHNP (anti-HER2/neu peptide mimetic), peptide 1, FCDGFYACYMDV-NH2 (peptide)
peptide: FCDGFYACYMDV-NH2
modifications: disulfide 2-8
notes: Designed from the CDR-H3 loop of rhumAb 4D5; also called anti-HER2 peptide
B5: AHNP analogue 3, YCDGFYACYMDV-NH2 (peptide)
peptide: YCDGFYACYMDV-NH2
modifications: disulfide 2-8 (inferred)
notes: N-terminal Phe of AHNP replaced with Tyr; also called peptide 3
B6: AHNP analogue 6, FCDGFYACYKDV-OH (peptide)
peptide: FCDGFYACYKDV-OH
modifications: disulfide 2-8 (inferred)
notes: Met of peptide 2 replaced by Lys; also called peptide 6
B7: AHNP analogue 7, GFCDGFYACYMDV-OH (peptide)
peptide: GFCDGFYACYMDV-OH
modifications: disulfide 3-9 (inferred)
notes: Gly placed at the N-terminus before Phe1; also called peptide 7
B8: AHNP analogue 5, FCDGFYACYMDVK-NH2 (peptide)
peptide: FCDGFYACYMDVK-NH2
modifications: disulfide 2-8 (inferred)
notes: Lys added as C-terminal residue; also called peptide 5

What follows are binders tested against human HER2 receptor overexpressed on T6-17 cells (NIH3T3-derived) (human, UniProt P04626 23-1255) (assay: cell-based or functional assay).
For B1, the “% inhibition (inhibition of T6-17 cell proliferation in MTT assays, 1 µg/mL peptide)” value (“% inhibition” for short) was 12.8%. With B2 the “% inhibition” value was 22.3%. B3 was tested, and the “% inhibition” value was 18.4%. With B4 the “% inhibition” value was 35.5%. With B5 the “% inhibition” value was 59.6%. For B6, the “% inhibition” value was 8.4%.

These binders were tested against T1, Recombinant purified HER2 receptor composed of the ectodomain of HER2 fused to the Fc of human IgG (human, UniProt P04626 23-652, limits assumed) (assay: Biacore SPR, immobilized HER2-Fc).
T1 construct: extracellular domain; Provided by Dr. Che Law, Xcyte Therapeutics; amine-coupled to the Biacore chip (3500 RU); also called immobilized HER2; p185; not shown: Fc of human IgG
Method: (§1) Binding experiments were performed with the surface plasmon resonance based biosensor instrument Biacore 3000 (Biacore AB, Uppsala, Sweden) at 25° C. Recombinant purified HER2 receptor composed of the ectodomain of HER2 fused to the Fc of human IgG was provided by Dr. Che Law, Xcyte Therapeutics, Seattle, Wash. Immobilization of HER2 in the sensor surface was performed following the standard amine coupling procedure according to manufacturer's instructions. Briefly, 35 μL of a solution containing 0.2M N-ethyl-N-(dimethylaminopropyl) carbodiimide (EDC) and 0.05 M N-hydroxysuccinimide (NHS) were injected at a flow rate of 5 μL/min to activate carboxyl groups on the sensor chip surface. HER2 (40 ng/mL in 10 mM NaOAc buffer, pH 5.0) was flowed over the chip surface at a flow rate of 20 μL/min until the desired level bound protein was reached. Unreacted protein washed out and unreacted activated groups were blocked by the injection of 35 μL of 1 M ethanolamine at 5 μL/min. […] A reference surface was generated simultaneously under the same conditions but without HER2 injection and used as a blank to correct for instrument and buffer artifacts. Peptides were injected at variable concentrations at 20 μL/min flow rate and binding to the HER2 receptor immobilized on the chip was monitored in real time. Each sensorgram consists of an association phase (first 240s), reflecting binding of the injected peptide to the receptor, followed by a dissociation phase (300s), during which the running buffer is passed over the chip and the bound peptide is being washed off the receptor surface.
For B2, the “fold higher affinity than the linear analogue 9” value was over 5 fold. B4 was tested, and the “fold increase in binding affinity against peptide 2” value was over 2 fold. B5 was tested, and the “fold improvement in binding (Phe replaced with Tyr)” value was over 2 fold. B6 was tested, and the “fold decrease in affinity (Lys substituted for Met)” value was 8.8 fold.

These binders were tested against T1, Recombinant purified HER2 receptor … (assay: Biacore SPR, HER2 ectodomain-Fc immobilized, peptide as analyte).
Method: as §1
B7 showed a Kd of 730 nM, a koff of 0.000808 s⁻¹ and a kon of 1110 M⁻¹ s⁻¹. B8 showed a Kd of 830 nM, a koff of 0.000512 s⁻¹ and a kon of 617 M⁻¹ s⁻¹. B1 gave a Kd of 3560 nM, a koff of 0.00106 s⁻¹ and a kon of 298 M⁻¹ s⁻¹. With B2 the Kd was 650 nM, the koff was 0.000643 s⁻¹ and the kon was 990 M⁻¹ s⁻¹. For B3, the Kd was 760 nM, the koff was 0.000701 s⁻¹ and the kon was 922 M⁻¹ s⁻¹. For B4, the Kd was 320 nM, the koff was 0.000453 s⁻¹ and the kon was 1410 M⁻¹ s⁻¹. Binder B5 has a Kd of 150 nM, a koff of 0.000294 s⁻¹ and a kon of 1960 M⁻¹ s⁻¹. For B6, the Kd was 5700 nM, the koff was 0.00125 s⁻¹ and the kon was 219 M⁻¹ s⁻¹.

The binders below were run against T1, Recombinant purified HER2 receptor … (assay: Biacore competition, AHNP preinjected 0-90 µM, then 1 nM rhumAb 4D5 (competitor) on immobilized HER2-Fc; initial rate of antibody binding).
Method: as §1, with “Each sensorgram consists of an association phase (first 240s), reflecting binding of the injected peptide to the receptor, followed by a dissociation phase (300s), during which the running buffer is passed over the chip and the bound peptide is being washed off the receptor surface.” left out
B4 was tested, and the IC50 was 3400 nM.
